Assay [1] deals with IL-23 alanine shave mutant M10 (human) (UniProt P29460). As to the kind of experiment: cell-based or functional assay.
The target of assay [2] is IL-23 alanine shave mutant M5 (human) (UniProt P29460). The experiment in a line: cell-based or functional assay.
Assay [3] has as its target IL-23 alanine shave mutant M7 (human) (UniProt P29460). The experiment in a line: cell-based or functional assay.
The target in assay [4] is IL-23 alanine shave mutant M9 (human) (UniProt P29460). The experiment in a line: cell-based or functional assay.
Assay [5] concerns the target wild-type IL-23 (His-tagged p19 / non-tagged p40) (human) (UniProt P29460). As to the kind of experiment: cell-based or functional assay.
Assay [6] deals with IL-23 D118A (human) (UniProt P29460). The experiment in a line: cell-based or functional assay.
The target in assay [7] is IL-23 D55A (human) (UniProt P29460). The experiment in a line: cell-based or functional assay.
In assay [8] the target is IL-23 E112A (human) (UniProt P29460). As to the kind of experiment: cell-based or functional assay.
For assay [9], the target named is IL-23 H53A (human) (UniProt P29460). The experiment in a line: cell-based or functional assay.
Assay [10] addresses IL-23 L116A (human) (UniProt P29460). As to the kind of experiment: cell-based or functional assay.
The target in assay [11] is IL-23 M54A (human) (UniProt P29460). As to the kind of experiment: cell-based or functional assay.
The target in assay [12] is wild-type IL-23 (His-tagged p19 / non-tagged p40) (human) (UniProt P29460). As to the kind of experiment: cell-based or functional assay. The source holds these as a separate data set.
Assay [13] concerns the target IL-23 D118A (human) (UniProt P29460). As to the kind of experiment: SPR Biacore, antibody captured on protein A, single alanine mutants of IL-23. In general terms: SPR reads the build-up and loss of mass on a sensor chip optically.
The target in assay [14] is IL-23 D55A (human) (UniProt P29460). The description is as above.
Assay [15] has as its target IL-23 E112A (human) (UniProt P29460). Described as above.
The target of assay [16] is IL-23 H53A (human) (UniProt P29460). The description is as above.
Assay [17] concerns the target IL-23 L116A (human) (UniProt P29460). The assay is described as above.
For assay [18], the target named is IL-23 M54A (human) (UniProt P29460). The assay is described as above.
Assay [19] concerns the target IL-23 alanine shave mutant M10 (human) (UniProt P29460). As to the kind of experiment: SPR Biacore T100, antibody captured on protein A, purified IL-23 variant, 1:1 Langmuir.
In assay [20] the target is IL-23 alanine shave mutant M5 (human) (UniProt P29460). Described as above.
The target in assay [21] is IL-23 alanine shave mutant M7 (human) (UniProt P29460). Described as above.
Assay [22] addresses IL-23 alanine shave mutant M9 (human) (UniProt P29460). The assay is described as above.

Like-named read-outs stand apart in the source and are kept apart here.

“STELARA (ustekinumab, IL-12/IL-23 p40 mAb) (antibody)”: the IC50, IL-23 variant-induced pSTAT3 in BaF3/huIL-23Ra/huIL-12Rb1 transfectants turned out to be 71 pM in assay [1]; 62 pM in assay [2]; 59 pM in assay [3]; 67 pM in [4]; 79 pM in [5]; 0.052 nM in the assay with IL-23 D118A (human) [6]. The IC50, IL-23 variant-induced pSTAT3 in BaF3/huIL-23Ra/huIL-12Rb1 transfectants with IL-23 D55A (human) [7] was found to be 0.077 nM; with IL-23 E112A (human) [8], 0.033 nM; with IL-23 H53A (human) [9], 0.078 nM; with IL-23 L116A (human) [10] it was 0.054 nM; in the assay with IL-23 M54A (human) [11], 0.081 nM; in assay [12], 0.067 nM. In addition, the ΔΔG with IL-23 D118A (human) [13] was -1.26 kJ/mol; with IL-23 D55A (human) [14] it was 2.09 kJ/mol; in the assay with IL-23 E112A (human) [15], 1.26 kJ/mol; in the assay with IL-23 H53A (human) [16], 1.26 kJ/mol; with IL-23 L116A (human) [17], 2.09 kJ/mol; with IL-23 M54A (human) [18], 1.26 kJ/mol. Further, the ΔΔG in assay [19] stood at 1.26 kJ/mol; in [20] it was 0.418 kJ/mol; in assay [21] it was 0.418 kJ/mol; in [22], 0.418 kJ/mol.

On to Merck's IL-23 p19 mAb (7G10) (antibody), for which the IC50, IL-23 variant-induced pSTAT3 in BaF3/huIL-23Ra/huIL-12Rb1 transfectants in [1] came to 350 pM; in assay [3] it was 310 pM; in [4] it was 260 pM; in assay [5], 380 pM; in the assay with IL-23 D118A (human) [6] it was 0.22 nM; with IL-23 D55A (human) [7], 0.18 nM. Further, the IC50, IL-23 variant-induced pSTAT3 in BaF3/huIL-23Ra/huIL-12Rb1 transfectants is > 3 nM with IL-23 E112A (human) [8]; 0.19 nM with IL-23 H53A (human) [9]; 0.24 nM in the assay with IL-23 L116A (human) [10]; 0.27 nM with IL-23 M54A (human) [11]; 0.18 nM in assay [12]. The ΔΔG in the assay with IL-23 D118A (human) [13] is -1.26 kJ/mol; in the assay with IL-23 D55A (human) [14] it was 2.93 kJ/mol; with IL-23 E112A (human) [15], 7.11 kJ/mol; with IL-23 H53A (human) [16], 0 kJ/mol; with IL-23 L116A (human) [17], 0.837 kJ/mol; in the assay with IL-23 M54A (human) [18], 4.18 kJ/mol. The ΔΔG in [19] amounted to 1.67 kJ/mol; in assay [20], 7.95 kJ/mol; in [21] it was 0.837 kJ/mol; in [22], 0.837 kJ/mol.
